This note sets out measurements from patent US8575110B2, “Peptidic nanoparticles as drug delivery and antigen display systems” (Alpha-O Peptides G, priority 2003, dated 2013).

The data set can be described thus: Analytical ultracentrifugation (AUC) of assembled peptidic nanoparticles. It is filed as physicochemical.

B1: Trimer(Foldon)Cys11—COMP (protein)
chain: GSGYIPEAPRCGQAYVRKDGEWVLLSTFLGGLAPQMLRELQETNAALQDVRELLRQQVKQITFLKNTVMECDACG
notes: Recombinant foldon, two-glycine linker, COMP peptide; residue Asp 11 replaced by a cystein residue
B1: the No. of monomers came to 9.0 (Example 4 preparation 1 (no DTT), 0.2 mg/ml) and 11.2 (Example 4 preparation 2 (2 mM DTT), 0.2 mg/ml).

B2: Trimer(Foldon)Cys11—Linker—COMP (protein)
chain: GSGYIPEAPRCGQAYVRKDGEWVLLSTFLGGSGLAPQMLRELQETNAALQDVRELLRQQVKQITFLKNTVMECDACG
Take B2: the No. of monomers by setting is: (Example 5 preparation 1 (dissolved directly, 2 mM DTT), 0.3 mg/ml) 10.1; (Example 5 preparation 1 (dissolved directly, 2 mM DTT), 0.6 mg/ml) 9.8; (Example 5 preparation 1 (dissolved directly, 2 mM DTT), 1.2 mg/ml) 11.3; (Example 5 preparation 2 (refolded from 8 M urea), 0.24 mg/ml) 15.1; (Example 5 preparation 2 (refolded from 8 M urea), 0.4 mg/ml) 14.3; (Example 5 preparation 2 (refolded from 8 M urea), 1.2 mg/ml) 14.8. Where the note is “Example 5 preparation 2 (refolded from 8 M urea), concentration independent, one even unit”, the No. of monomers is reported as 15.
